Measured values taken from the supplement of paper PMC11246515.
± gives the standard deviation of the averaged measurements.

Experiment: total protein half-life in vivo (active degradation + dilution); higher = more stable protein
[1] = wild type E. coli NCM3722, growth: N-lim chemostat, doubling time 6 h
[2] = wild type E. coli NCM3722, growth: P-lim chemostat, doubling time 12 h
[3] = E. coli NCM3722 delta-clpP delta-lon delta-hslV, growth: N-lim chemostat, doubling time 6 h
[4] = E. coli NCM3722 delta-clpP, growth: N-lim chemostat, doubling time 6 h
[5] = E. coli NCM3722 delta-hslV, growth: N-lim chemostat, doubling time 6 h
[6] = E. coli NCM3722 delta-smpB, growth: N-lim chemostat, doubling time 6 h
[7] = wild type E. coli NCM3722, growth: C-lim chemostat, doubling time 3 h
[8] = wild type E. coli NCM3722, growth: C-lim chemostat, doubling time 6 h
[9] = wild type E. coli NCM3722, growth: C-lim chemostat, doubling time 12 h
[10] = wild type E. coli NCM3722, growth: N-lim chemostat, doubling time 12 h
[11] = wild type E. coli NCM3722, growth: P-lim chemostat, doubling time 6 h
[12] = E. coli NCM3722 delta-lon, growth: N-lim chemostat, doubling time 6 h

Sequence | total protein half-life in vivo [1] | total protein half-life in vivo [2] | total protein half-life in vivo [3] | total protein half-life in vivo [4] | total protein half-life in vivo [5] | total protein half-life in vivo [6] | total protein half-life in vivo [7] | total protein half-life in vivo [8] | total protein half-life in vivo [9] | total protein half-life in vivo [10] | total protein half-life in vivo [11] | total protein half-life in vivo [12]
MAFVSEREIVRKIFSKKIDFTILAFFYISSIFFLLCSGVLFQYFTAAFTKGNCYECSMKLDYIKQFYFSLETAWYLISAVAVFIASVFIQHRIKAYLTLLAITWIVLTITDVALIHALDNIAMNNILLNILYNLFGAILLSLFMCLSNSLLFHLNKIKHIPMILSAMIPLVSAIIIAILITAVIYLLFARQAVEIEMDISEGSDIAYVGVKDNEESFGFLNDKKTDTPTYLDVIKNGSLIYNDTQGLSGADIYIVSGCYALPDLLRNVPLDAKKSFLNVKKLEITQKLPMMGFIQGESADVMPKAASRLSLSKQDDKFMLASSVTDSQIKFKSNNAQLMVAFAFMPITTNGILHDYTYDIIINDKKYKIENHVAPLSRLDKNKKMKCEYQQISDLTNTYNINANYLTGFLLVLKPDDIINYNNSPSVLLKTDFAFYKKTYQKLDKIYDDISNGKLSSLRATGISQFSINGKHLSLRPESEIIISEGSLYGLVNKSKKIKIYGTADLVFVDNKIMNLRKITYLQSKLEIFGSSIMDILKYIFGLGLLAISIKFIHSYFKNDVNENLFL | 2.06 h | 2.3 ± 0.71 h |  |  |  |  |  |  |  |  |  | 
MAGINLNKKLWRIPQQGMVRGVCAGIANYFDVPVKLVRILVVLSIFFGLALFTLVAYIILSFALDPMPDNMAFGEQLPSSSELLDEVDRELAASETRLREMERYVTSDTFTLRSRFRQL [P0AFN2] | 4.862 ± 0.037 h | 10 ± 0.79 h | 5.469 ± 0.044 h | > 8 h | 5.48 ± 0.47 h | 4.53 ± 0.38 h | 2.498 ± 0.015 h | 3.81 ± 0.91 h | 6.7 ± 3.6 h | 9.24 ± 0.17 h | 7.55 h | 
MAGLKLQAVTKSWDGKTQVIKPLTLDVADGEFIVMVGPSGCGKSTLLRMVAGLERVTEGDIWINDQRVTEMEPKDRGIAMVFQNYALYPHMSVEENMAWGLKIRGMGKQQIAERVKEAARILELDGLLKRRPRELSGGQRQRVAMGRAIVRDPAVFLFDEPLSNLDAKLRVQMRLELQQLHRRLKTTSLYVTHDQVEAMTLAQRVMVMNGGVAEQIGTPVEVYEKPASLFVASFIGSPAMNLLTGRVNNEGTHFELDGGIELPLNGGYRQYAGRKMTLGIRPEHIALSSQAEGGVPMVMDTLEILGADNLAHGRWGEQKLVVRLAHQERPTAGSTLWLHLAENQLHLFDGETGQRV | 5.14 ± 0.41 h | 13.2 ± 0.23 h | 6.33 ± 0.31 h | 6 ± 0.91 h | 5.83 ± 0.11 h | 5.45 ± 0.75 h | 3.13 ± 0.15 h | 5.54 ± 0.4 h | 12 ± 0.92 h |  | 6.25 ± 0.35 h | 4.99 ± 0.61 h
MAGLPNSSNALQQWHHLFEAEGTKRSPQAQQHLQQLLRTGLPTRKHENWKYTPLEGLINSQFVSIAGEISPQQRDALALTLDSVRLVFVDGRYVPALSDATEGSGYEVSINDDRQGLPDAIQAEVFLHLTESLAQSVTHIAVKRGQRPAKPLLLMHITQGVAGEEVNTAHYRHHLDLAEGAEATVIEHFVSLNDARHFTGARFTINVAANAHLQHIKLAFENPLSHHFAHNDLLLAEDATAFSHSFLLGGAVLRHNTSTQLNGENSTLRINSLAMPVKNEVCDTRTWLEHNKGFCNSRQLHKTIVSDKGRAVFNGLINVAQHAIKTDGQMTNNNLLMGKLAEVDTKPQLEIYADDVKCSHGATVGRIDDEQIFYLRSRGINQQDAQQMIIYAFAAELTEALRDEGLKQQVLARIGQRLPGGAR | 2.37 ± 0.38 h | 6.04 ± 0.41 h | 4.76 ± 0.4 h | 3.22 ± 0.11 h | 2.1 ± 0.063 h | 1.99 ± 0.24 h | 2.2 ± 0.22 h | 3.91 ± 0.52 h | 5.81 ± 0.08 h | 2.817 ± 0.0043 h | 3.2 ± 0.23 h | 3.45 ± 1.1 h
MAGNVQEKQLRWYNIALMSFITVWGFGNVVNNYANQGLVVVFSWVFIFALYFTPYALIVGQLGSTFKDGKGGVSTWIKHTMGPGLAYLAAWTYWVVHIPYLAQKPQAILIALGWAMKGDGSLIKEYSVVALQGLTLVLFIFFMWVASRGMKSLKIVGSVAGIAMFVMSLLYVAMAVTAPAITEVHIATTNITWETFIPHIDFTYITTISMLVFAVGGAEKISPYVNQTRNPGKEFPKGMLCLAVMVAVCAILGSLAMGMMFDSRNIPDDLMTNGQYYAFQKLGEYYNMGNTLMVIYAIANTLGQVAALVFSIDAPLKVLLGDADSKYIPASLCRTNASGTPVNGYFLTLVLVAILIMLPTLGIGDMNNLYKWLLNLNSVVMPLRYLWVFVAFIAVVRLAQKYKPEYVFIRNKPLAMTVGIWCFAFTAFACLTGIFPKMEAFTAEWTFQLALNVATPFVLVGLGLIFPLLARKANSK |  |  |  |  |  |  |  | 6.93 h |  |  |  | 
MAHIVTLNTPSREDWLTQLADVVTDPDELLRLLNIDAEEKLLAGRSAKKLFALRVPRSFIDRMEKGNPDDPLLRQVLTSQDEFVIAPGFSTDPLEEQHSVVPGLLHKYHNRALLLVKGGCAVNCRYCFRRHFPYAENQGNKRNWQTALEYVAAHPELDEMIFSGGDPLMAKDHELDWLLTQLEAIPHIKRLRIHSRLPIVIPARITEALVECFARSTLQILLVNHINHANEVDETFRQAMAKLRRVGVTLLNQSVLLRDVNDNAQTLANLSNALFDAGVMPYYLHVLDKVQGAAHFMVSDDEARQIMRELLTLVSGYLVPKLAREIGGEPSKTPLDLQLRQQ | 1.58 ± 0.58 h | 2.71 ± 0.88 h | 5.05 ± 0.77 h | 2.63 ± 0.045 h | 1.02 ± 0.14 h | 1.33 h | 1.41 ± 0.071 h | 1.57 ± 0.15 h | 3.35 ± 1.6 h | 2.05 h | 1.51 ± 0.33 h | 1.61 ± 0.14 h
MAIDENKQKALAAALGQIEKQFGKGSIMRLGEDRSMDVETISTGSLSLDIALGAGGLPMGRIVEIYGPESSGKTTLTLQVIAAAQREGKTCAFIDAEHALDPIYARKLGVDIDNLLCSQPDTGEQALEICDALARSGAVDVIVVDSVAALTPKAEIEGEIGDSHMGLAARMMSQAMRKLAGNLKQSNTLLIFINQIRMKIGVMFGNPETTTGGNALKFYASVRLDIRRIGAVKEGENVVGSETRVKVVKNKIAAPFKQAEFQILYGEGINFYGELVDLGVKEKLIEKAGAWYSYKGEKIGQGKANATAWLKDNPETAKEIEKKVRELLLSNPNSTPDFSVDDSEGVAETNEDF [P0A7G6] | 3.4281 ± 0.0021 h | 9.63 ± 0.48 h | 6.6 ± 1 h | 5.85 ± 0.55 h | 3.37 ± 0.057 h | 3.32 ± 0.036 h | 2.86 ± 0.031 h | 4.82 ± 0.084 h | 11.7 ± 4.1 h | 4.94 ± 0.44 h | 4.77 ± 0.2 h | 3.272 ± 0.025 h
MAIEIKVPDIGADEVEITEILVKVGDKVEAEQSLITVEGDKASMEVPSPQAGIVKEIKVSVGDKTQTGALIMIFDSADGAADAAPAQAEEKKEAAPAAAPAAAAAKDVNVPDIGSDEVEVTEILVKVGDKVEAEQSLITVEGDKASMEVPAPFAGTVKEIKVNVGDKVSTGSLIMVFEVAGEAGAAAPAAKQEAAPAAAPAPAAGVKEVNVPDIGGDEVEVTEVMVKVGDKVAAEQSLITVEGDKASMEVPAPFAGVVKELKVNVGDKVKTGSLIMIFEVEGAAPAAAPAKQEAAAPAPAAKAEAPAAAPAAKAEGKSEFAENDAYVHATPLIRRLAREFGVNLAKVKGTGRKGRILREDVQAYVKEAIKRAEAAPAATGGGIPGMLPWPKVDFSKFGEIEEVELGRIQKISGANLSRNWVMIPHVTHFDKTDITELEAFRKQQNEEAAKRKLDVKITPVVFIMKAVAAALEQMPRFNSSLSEDGQRLTLKKYINIGVAVDTPNGLVVPVFKDVNKKGIIELSRELMTISKKARDGKLTAGEMQGGCFTISSIGGLGTTHFAPIVNAPEVAILGVSKSAMEPVWNGKEFVPRLMLPISLSFDHRVIDGADGARFITIINNTLSDIRRLVM | 6.19 ± 0.27 h | 12.5 ± 0.53 h | 6.49 ± 0.23 h | 6.08 ± 0.4 h | 6.48 ± 0.081 h | 5.78 ± 0.37 h | 3.08 ± 0.092 h | 5.778 ± 0.018 h | 10.6 ± 0.66 h | 12.3 ± 0.84 h | 6.07 ± 0.26 h | 6.36 ± 0.067 h
